The record followed here is patent US20110177071A1 (PERSEID THERAPEUTICS, published 2011).

In general, Kd refers to the constant that tells how readily two partners part at equilibrium. A lower Kd goes with tighter binding.

The target of experiment [1] is T1, human CD86-murine Ig fusion protein (human).
T1 construct: Bought (Ancell #509-820); also called hCD86-mIg
T1 chain: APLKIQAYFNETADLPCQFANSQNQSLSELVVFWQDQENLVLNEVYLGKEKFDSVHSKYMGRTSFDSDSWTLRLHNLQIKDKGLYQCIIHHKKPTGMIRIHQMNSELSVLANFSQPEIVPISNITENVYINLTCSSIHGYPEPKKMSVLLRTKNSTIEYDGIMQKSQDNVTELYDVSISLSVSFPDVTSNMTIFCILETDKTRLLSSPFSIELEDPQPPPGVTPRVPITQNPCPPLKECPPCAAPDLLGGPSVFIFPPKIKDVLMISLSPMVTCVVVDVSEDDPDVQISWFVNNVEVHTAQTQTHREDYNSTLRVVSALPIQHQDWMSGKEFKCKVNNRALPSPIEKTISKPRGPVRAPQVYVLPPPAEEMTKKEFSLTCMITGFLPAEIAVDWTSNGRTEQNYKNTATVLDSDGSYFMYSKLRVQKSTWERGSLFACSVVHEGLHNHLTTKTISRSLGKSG
Kind of experiment: SPR Biacore, hCD86-mIg captured; lower end of the KD bin (10x Orencia). On the procedure:
(§1) All Biacore™ analyses were performed on a Biacore™ 2000 system (GE Healthcare) at room temperature (RT, 25° C.). HBS-EP buffer (10 mM HEPES (pH 7.4), 150 mM NaCl, 3 mM EDTA, 0.005% surfactant P20) was used as the flow buffer for all experiments.
(§2) Rabbit anti-mouse IgG antibody (GE Healthcare, #BR-1005-14) was immobilized on CM5 sensor chips (GE Healthcare, #BR-1000-14) according to the manufacturer's protocol. Antibody was diluted to 30 μg/ml in immobilization buffer (10 mM sodium acetate, pH 5.0 (BR-1003-51)). At a flow rate of 5 μl/minute, sensor chip CM5 was activated with a 35 μl injection of a mixture of 1-Ethyl-3-[3-dimethylaminopropyl]carbodiimide hydrochloride (EDC) and N-hydroxysuccinimide (NHS) (made by mixing equal volumes of 11.5 mg/ml EDC and 75 mg/ml NHS) (GE Healthcare, #BR-1000-50), followed by a 35 μl injection of undiluted antibody. Un-reacted sites were quenched with 35 μl of 1M ethanolamine-HCL, pH 8.5 (GE Healthcare, #BR-1000-50). […] CTLA-4 ligands human CD80-murine Ig (hCD80-mIg) (Ancell, #510-820) or human CD86-murine Ig (hCD86-mIg) (Ancell, #509-820) were bound to antibody-coated sensor chips by injection of 10 μl or 16 μl, respectively, ligand solution (2 μg/ml protein in HBS-EP buffer [10 mM HEPES pH 7.4, 150 mM NaCl, 3 mM EDTA, 0.005% (v/v) surfactant P-20, GE Healthcare, #BR-1001-88]) at a flow rate of 10 μl/min.

The target in experiment [2] is T1, human CD86-murine Ig fusion protein. Kind of experiment: SPR Biacore, hCD86-mIg captured; upper end of the KD bin (2x Orencia). On the procedure: as §1, §2
On the technique in general: Surface plasmon resonance follows binding to a sensor surface in real time, without labels.

The target of experiment [3] is T2, human CD80-murine Ig fusion protein (human).
T2 construct: Bought (Ancell #510-820); also called hCD80-mIg; human CD80-murine IgG
T2 chain: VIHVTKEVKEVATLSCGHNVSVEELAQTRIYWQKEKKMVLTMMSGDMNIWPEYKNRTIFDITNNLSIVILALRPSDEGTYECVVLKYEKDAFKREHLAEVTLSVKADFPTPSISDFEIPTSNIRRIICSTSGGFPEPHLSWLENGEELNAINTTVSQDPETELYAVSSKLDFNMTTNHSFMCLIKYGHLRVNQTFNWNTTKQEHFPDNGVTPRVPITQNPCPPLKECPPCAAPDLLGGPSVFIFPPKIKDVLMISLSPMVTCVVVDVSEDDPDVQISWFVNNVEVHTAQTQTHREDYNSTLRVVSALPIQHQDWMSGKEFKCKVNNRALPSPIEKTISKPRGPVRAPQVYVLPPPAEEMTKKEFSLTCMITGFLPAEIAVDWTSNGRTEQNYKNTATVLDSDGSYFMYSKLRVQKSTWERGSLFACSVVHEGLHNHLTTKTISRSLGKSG
Kind of experiment: SPR Biacore, hCD80-mIg captured.

Experiment [4] concerns the target T1, human CD86-murine Ig fusion protein. Kind of experiment: SPR Biacore, hCD86-mIg captured.
The target in experiment [5] is T3, full-length human CD86 on HEK293 cells (human, UniProt P42081 24-329).
T3 sequence: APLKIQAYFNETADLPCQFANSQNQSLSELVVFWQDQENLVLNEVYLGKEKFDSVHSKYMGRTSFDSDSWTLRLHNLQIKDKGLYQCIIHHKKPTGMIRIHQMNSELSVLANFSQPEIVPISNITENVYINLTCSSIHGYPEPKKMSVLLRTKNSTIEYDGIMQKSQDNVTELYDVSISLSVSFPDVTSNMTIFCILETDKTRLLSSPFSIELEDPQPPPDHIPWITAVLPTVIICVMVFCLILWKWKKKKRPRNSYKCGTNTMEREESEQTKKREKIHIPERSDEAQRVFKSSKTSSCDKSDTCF
Kind of experiment: cell-based or functional assay.

For experiment [6], the target named is T4, monomeric hCD86 ECD (papain-digested hCD86-mIg) (human, UniProt P42081 24-243).
T4 construct: also called monomeric hCD86-mIg ligand; monomeric CD86 ECD
T4 chain: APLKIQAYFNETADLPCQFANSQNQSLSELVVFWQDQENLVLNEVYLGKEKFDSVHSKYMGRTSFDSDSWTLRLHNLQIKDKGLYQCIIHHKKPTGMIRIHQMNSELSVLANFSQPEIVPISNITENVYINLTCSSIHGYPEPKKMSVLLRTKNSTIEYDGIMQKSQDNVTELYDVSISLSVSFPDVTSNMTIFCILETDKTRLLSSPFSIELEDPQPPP
Kind of experiment: SPR Biacore, fusion protein captured, monomeric hCD86 ECD in flow. How it is done: Regeneration between cycles was performed by 3 min incubation with 10 mM glycine buffer (pH 1.7) at 30 μl/min.
For kinetic analysis, data from monomeric binding assays were selected as described above except that association data selection began and ended 5 s from the injection start and stop times, and dissociation data selection started 5 s after the injection stop time, and typically included 1-60 s of the dissociation period. Such data were also analyzed for steady state equilibrium affinities using the BIAevaluation software. Steady state binding levels for each concentration (Responseeq (“Req”) values) were averaged over 5-20 s range near the end of the sample injection using the BIAevaluation “General fit: average” function.

B1: D1-IgG2 (Fc fusion)
chain: MHVAQPAVVLASSRGIASFVCEYESPHKATEIRVTVLRQANSQVTEVCAMTYMKGDELTFLDDPFCTGTFSGNQVNLTIQGLRAADTGLYICKVELMYPPPYYLGIGNGTQIYVIDPEPCPDSDERKCCVECPPCPAPPVAGPSVFLFPPKPKDTLMISRTPEVTCVVVDVSHEDPEVQFNWYVDGVEVHNAKTKPREEQFNSTFRVVSVLTVVHQDWLNGKEYKCKVSNKGLPAPIEKTISKTKGQPREPQVYTLPPSREEMTKNQVSLTCLVKGFYPSDIAVEWESNGQPENNYKTTPPMLDSDGSFFLYSKLTVDKSRWQQGNVFSCSVMHEALHNHYTQKSLSLSPG
Turning to B1, the Kd is at least 0.523 nM in experiment [1], at most 2.65 nM in experiment [2] and under 0.439 nM in experiment [3]. For the same molecule, in experiment [3], the “Binding Avidity (Relative to Orencia)” value was over 2 fold.

B2: D3-IgG2 (Fc fusion)
chain: MHVAQPAVVLASSRGIASFVCEYESPGKANEIRVTVLRQAGSQVTEVCAMTYMKGDELTFLDDPSCTGTFSGNQVNLTIQGLRAADTGLYICKVELMYPPPYYLGFGNGTQIYVIDPEPCPDSDERKCCVECPPCPAPPVAGPSVFLFPPKPKDTLMISRTPEVTCVVVDVSHEDPEVQFNWYVDGVEVHNAKTKPREEQFNSTFRVVSVLTVVHQDWLNGKEYKCKVSNKGLPAPIEKTISKTKGQPREPQVYTLPPSREEMTKNQVSLTCLVKGFYPSDIAVEWESNGQPENNYKTTPPMLDSDGSFFLYSKLTVDKSRWQQGNVFSCSVMHEALHNHYTQKSLSLSPG
notes: also called clone D3
Consider B2, for which, in experiment [4], the “Binding Avidity (Relative to Orencia)” value is over 40 fold and the dissociation constant Kd is under 0.131 nM. For the same molecule, the “Mean IC50 (nM), CD4+ T cell proliferation” value in experiment [5] is 0.04 nM. The molecule further gave a Kd in experiment [3] of 0.439 to 1.75 nM. For the same molecule, in experiment [6], the “Binding Affinity (Relative to LEA29Y-Ig)” value was over 5 fold and the equilibrium dissociation constant (Kd) was under 336 nM.
